# Measured values taken from IntAct's records for PubMed 19966303.
# Tests used:
# atc5_yeast DNF1 = atc5_yeast DNF1 (UniProt P32660)
# ypk1_yeast YPK1 = ypk1_yeast YPK1 (UniProt P12688)
# ypk1_yeast YPK1, sequence (P12688 whole entry): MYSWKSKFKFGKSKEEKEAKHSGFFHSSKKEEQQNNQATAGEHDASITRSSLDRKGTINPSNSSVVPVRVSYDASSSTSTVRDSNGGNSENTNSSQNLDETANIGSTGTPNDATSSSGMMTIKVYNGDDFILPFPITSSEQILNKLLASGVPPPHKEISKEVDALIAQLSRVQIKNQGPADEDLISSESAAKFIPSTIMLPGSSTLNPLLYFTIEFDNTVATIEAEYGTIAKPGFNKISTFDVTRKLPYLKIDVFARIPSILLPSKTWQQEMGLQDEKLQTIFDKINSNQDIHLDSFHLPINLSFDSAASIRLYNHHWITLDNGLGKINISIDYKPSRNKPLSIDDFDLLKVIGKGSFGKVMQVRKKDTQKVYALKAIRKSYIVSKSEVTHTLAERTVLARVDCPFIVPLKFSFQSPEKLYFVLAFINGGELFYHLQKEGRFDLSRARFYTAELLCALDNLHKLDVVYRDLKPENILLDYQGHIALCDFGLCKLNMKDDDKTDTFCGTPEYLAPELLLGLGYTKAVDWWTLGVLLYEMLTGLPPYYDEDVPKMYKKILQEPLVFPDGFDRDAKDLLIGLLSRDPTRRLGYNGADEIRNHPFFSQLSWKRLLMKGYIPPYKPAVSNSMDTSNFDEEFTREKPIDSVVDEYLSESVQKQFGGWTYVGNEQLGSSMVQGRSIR
# atc5_yeast DNF1, sequence (P32660 whole entry): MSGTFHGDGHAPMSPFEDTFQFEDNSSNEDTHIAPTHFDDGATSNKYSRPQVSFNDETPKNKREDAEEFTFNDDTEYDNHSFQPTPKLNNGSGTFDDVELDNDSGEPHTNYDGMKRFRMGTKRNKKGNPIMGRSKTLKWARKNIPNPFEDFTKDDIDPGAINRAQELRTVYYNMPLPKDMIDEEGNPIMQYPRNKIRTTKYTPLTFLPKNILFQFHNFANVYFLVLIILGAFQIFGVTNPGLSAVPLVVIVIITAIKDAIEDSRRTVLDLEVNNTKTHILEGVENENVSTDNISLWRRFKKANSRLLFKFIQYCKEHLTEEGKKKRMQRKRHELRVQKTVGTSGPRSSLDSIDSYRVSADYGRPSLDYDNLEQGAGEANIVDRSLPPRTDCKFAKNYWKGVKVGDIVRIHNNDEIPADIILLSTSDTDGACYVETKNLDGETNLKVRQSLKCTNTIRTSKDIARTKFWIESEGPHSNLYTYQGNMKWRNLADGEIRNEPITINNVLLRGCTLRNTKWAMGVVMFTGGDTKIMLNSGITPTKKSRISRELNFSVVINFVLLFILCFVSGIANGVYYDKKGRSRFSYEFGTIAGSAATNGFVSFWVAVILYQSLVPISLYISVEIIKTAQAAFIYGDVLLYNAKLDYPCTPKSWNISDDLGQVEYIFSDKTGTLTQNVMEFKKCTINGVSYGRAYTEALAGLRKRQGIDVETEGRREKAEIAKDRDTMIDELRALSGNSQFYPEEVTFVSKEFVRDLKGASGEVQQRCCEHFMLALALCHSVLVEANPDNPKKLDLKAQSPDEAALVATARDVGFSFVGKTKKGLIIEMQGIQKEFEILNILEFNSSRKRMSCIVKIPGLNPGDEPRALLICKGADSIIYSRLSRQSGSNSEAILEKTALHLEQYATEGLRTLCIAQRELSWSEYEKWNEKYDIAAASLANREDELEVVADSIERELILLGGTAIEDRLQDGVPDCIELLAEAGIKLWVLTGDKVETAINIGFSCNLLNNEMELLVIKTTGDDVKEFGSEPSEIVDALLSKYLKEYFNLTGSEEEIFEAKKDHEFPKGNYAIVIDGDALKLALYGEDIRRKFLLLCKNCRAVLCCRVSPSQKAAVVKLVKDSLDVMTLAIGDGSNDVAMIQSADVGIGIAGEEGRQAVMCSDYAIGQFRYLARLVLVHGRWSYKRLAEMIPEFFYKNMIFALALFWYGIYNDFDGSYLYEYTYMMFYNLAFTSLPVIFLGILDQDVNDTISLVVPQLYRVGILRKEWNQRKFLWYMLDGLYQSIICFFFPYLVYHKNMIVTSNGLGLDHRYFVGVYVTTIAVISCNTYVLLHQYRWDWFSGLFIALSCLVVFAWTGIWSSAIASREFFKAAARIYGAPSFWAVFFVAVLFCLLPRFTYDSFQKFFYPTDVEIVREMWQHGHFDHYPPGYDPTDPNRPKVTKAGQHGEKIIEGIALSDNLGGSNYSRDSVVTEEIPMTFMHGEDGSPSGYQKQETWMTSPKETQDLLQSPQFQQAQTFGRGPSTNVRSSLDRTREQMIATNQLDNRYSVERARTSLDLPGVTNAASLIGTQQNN
substance,measurement,setting,value
"Flippase kinase 1 (Saccharomyces cerevisiae), P53739 D621A",effect of a mutation on the interaction,atc5_yeast DNF1,disrupting interaction
same,effect of a mutation on the interaction,ypk1_yeast YPK1,disrupting interaction
